Data from patent US20160272683A1 (Novo Nordisk, published 2016).
Numbered stars: 1 amine (or outer) side, 2 acyl side, 3 side chain; on linkers, the order of the positions; unused ones are H or OH. * marks the point of attachment. C20 diacid = O=C(O)CCCCCCCCCCCCCCCCCCC(=O)*; C18 diacid = O=C(O)CCCCCCCCCCCCCCCCC(=O)*; γGlu = O=C(O)[C@H](CCC(=O)[*:2])N[*:1]

T1: human calcitonin receptor (human, UniProt P30988 25-474)
T1 construct: whole, on cells; also called hCT-R; hCTR
T1 sequence (looked up): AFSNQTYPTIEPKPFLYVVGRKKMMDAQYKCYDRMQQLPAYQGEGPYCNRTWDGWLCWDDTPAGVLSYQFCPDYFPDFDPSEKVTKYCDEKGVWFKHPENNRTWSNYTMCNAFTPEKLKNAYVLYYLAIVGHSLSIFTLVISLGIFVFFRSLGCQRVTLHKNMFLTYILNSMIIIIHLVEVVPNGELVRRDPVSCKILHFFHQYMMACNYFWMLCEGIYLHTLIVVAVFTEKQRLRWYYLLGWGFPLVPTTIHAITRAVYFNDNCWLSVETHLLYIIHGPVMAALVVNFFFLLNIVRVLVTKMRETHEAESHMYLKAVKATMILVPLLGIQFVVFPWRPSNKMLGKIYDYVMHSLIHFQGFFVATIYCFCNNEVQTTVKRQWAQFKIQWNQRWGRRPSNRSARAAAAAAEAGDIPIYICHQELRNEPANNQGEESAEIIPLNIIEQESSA

B1: [N-terminal(C18 diacid-gGlu), des1, 30S]mimylin (peptide)
peptide: {C18 diacid-γGlu}-ASELSTAALGRLSAELHELATLPRTETGSESP-NH2
SMILES: CC(C)C[C@H](NC(=O)[C@H](C)NC(=O)[C@H](C)NC(=O)[C@@H](NC(=O)[C@H](CO)NC(=O)[C@H](CC(C)C)NC(=O)[C@H](CCC(=O)O)NC(=O)[C@H](CO)NC(=O)[C@H](C)NC(=O)CC[C@H](NC(=O)CCCCCCCCCCCCCCCCC(=O)O)C(=O)O)[C@@H](C)O)C(=O)NCC(=O)N[C@@H](CCCNC(=N)N)C(=O)N[C@@H](CC(C)C)C(=O)N[C@@H](CO)C(=O)N[C@@H](C)C(=O)N[C@@H](CCC(=O)O)C(=O)N[C@@H](CC(C)C)C(=O)N[C@@H](Cc1c[nH]cn1)C(=O)N[C@@H](CCC(=O)O)C(=O)N[C@@H](CC(C)C)C(=O)N[C@@H](C)C(=O)N[C@H](C(=O)N[C@@H](CC(C)C)C(=O)N1CCC[C@H]1C(=O)N[C@@H](CCCNC(=N)N)C(=O)N[C@H](C(=O)N[C@@H](CCC(=O)O)C(=O)N[C@H](C(=O)NCC(=O)N[C@@H](CO)C(=O)N[C@@H](CCC(=O)O)C(=O)N[C@@H](CO)C(=O)N1CCC[C@H]1C(N)=O)[C@@H](C)O)[C@@H](C)O)[C@@H](C)O
notes: also called Ex. #23
B2: [N-terminal(C20 diacid-gGlu), des1, 9T, 21S, 23Y, 30S, 31G]mimylin (peptide)
peptide: {C20 diacid-γGlu}-ASELSTATLGRLSAELHELSTYPRTETGSGSP-NH2
SMILES: CC(C)C[C@H](NC(=O)[C@H](CCCNC(=N)N)NC(=O)CNC(=O)[C@H](CC(C)C)NC(=O)[C@@H](NC(=O)[C@H](C)NC(=O)[C@@H](NC(=O)[C@H](CO)NC(=O)[C@H](CC(C)C)NC(=O)[C@H](CCC(=O)O)NC(=O)[C@H](CO)NC(=O)[C@H](C)NC(=O)CC[C@H](NC(=O)CCCCCCCCCCCCCCCCCCC(=O)O)C(=O)O)[C@@H](C)O)[C@@H](C)O)C(=O)N[C@@H](CO)C(=O)N[C@@H](C)C(=O)N[C@@H](CCC(=O)O)C(=O)N[C@@H](CC(C)C)C(=O)N[C@@H](Cc1c[nH]cn1)C(=O)N[C@@H](CCC(=O)O)C(=O)N[C@@H](CC(C)C)C(=O)N[C@@H](CO)C(=O)N[C@H](C(=O)N[C@@H](Cc1ccc(O)cc1)C(=O)N1CCC[C@H]1C(=O)N[C@@H](CCCNC(=N)N)C(=O)N[C@H](C(=O)N[C@@H](CCC(=O)O)C(=O)N[C@H](C(=O)NCC(=O)N[C@@H](CO)C(=O)NCC(=O)N[C@@H](CO)C(=O)N1CCC[C@H]1C(N)=O)[C@@H](C)O)[C@@H](C)O)[C@@H](C)O
notes: also called Ex. #92
B3: [N-terminal(C20 diacid-gGlu), des1, 12K, 23Y, 25K, 30S, 31G, 33Y]mimylin (peptide)
peptide: {C20 diacid-γGlu}-ASELSTAALGKLSAELHELATYPKTETGSGSY-NH2
SMILES: CC(C)C[C@H](NC(=O)[C@H](C)NC(=O)[C@H](C)NC(=O)[C@@H](NC(=O)[C@H](CO)NC(=O)[C@H](CC(C)C)NC(=O)[C@H](CCC(=O)O)NC(=O)[C@H](CO)NC(=O)[C@H](C)NC(=O)CC[C@H](NC(=O)CCCCCCCCCCCCCCCCCCC(=O)O)C(=O)O)[C@@H](C)O)C(=O)NCC(=O)N[C@@H](CCCCN)C(=O)N[C@@H](CC(C)C)C(=O)N[C@@H](CO)C(=O)N[C@@H](C)C(=O)N[C@@H](CCC(=O)O)C(=O)N[C@@H](CC(C)C)C(=O)N[C@@H](Cc1c[nH]cn1)C(=O)N[C@@H](CCC(=O)O)C(=O)N[C@@H](CC(C)C)C(=O)N[C@@H](C)C(=O)N[C@H](C(=O)N[C@@H](Cc1ccc(O)cc1)C(=O)N1CCC[C@H]1C(=O)N[C@@H](CCCCN)C(=O)N[C@H](C(=O)N[C@@H](CCC(=O)O)C(=O)N[C@H](C(=O)NCC(=O)N[C@@H](CO)C(=O)NCC(=O)N[C@@H](CO)C(=O)N[C@@H](Cc1ccc(O)cc1)C(N)=O)[C@@H](C)O)[C@@H](C)O)[C@@H](C)O
notes: also called Ex. #101
B4: [N-terminal(C20 diacid-gGlu), des1, 21S, 23Y, 30S, 31G, 33Y]mimylin (peptide)
peptide: {C20 diacid-γGlu}-ASELSTAALGRLSAELHELSTYPRTETGSGSY-NH2
SMILES: CC(C)C[C@H](NC(=O)[C@H](C)NC(=O)[C@H](C)NC(=O)[C@@H](NC(=O)[C@H](CO)NC(=O)[C@H](CC(C)C)NC(=O)[C@H](CCC(=O)O)NC(=O)[C@H](CO)NC(=O)[C@H](C)NC(=O)CC[C@H](NC(=O)CCCCCCCCCCCCCCCCCCC(=O)O)C(=O)O)[C@@H](C)O)C(=O)NCC(=O)N[C@@H](CCCNC(=N)N)C(=O)N[C@@H](CC(C)C)C(=O)N[C@@H](CO)C(=O)N[C@@H](C)C(=O)N[C@@H](CCC(=O)O)C(=O)N[C@@H](CC(C)C)C(=O)N[C@@H](Cc1c[nH]cn1)C(=O)N[C@@H](CCC(=O)O)C(=O)N[C@@H](CC(C)C)C(=O)N[C@@H](CO)C(=O)N[C@H](C(=O)N[C@@H](Cc1ccc(O)cc1)C(=O)N1CCC[C@H]1C(=O)N[C@@H](CCCNC(=N)N)C(=O)N[C@H](C(=O)N[C@@H](CCC(=O)O)C(=O)N[C@H](C(=O)NCC(=O)N[C@@H](CO)C(=O)NCC(=O)N[C@@H](CO)C(=O)N[C@@H](Cc1ccc(O)cc1)C(N)=O)[C@@H](C)O)[C@@H](C)O)[C@@H](C)O
notes: also called Ex. #97
B5: [N-terminal(C20 diacid-gGlu), des1, 23Y, 30S, 31G, 32A]mimylin (peptide)
peptide: {C20 diacid-γGlu}-ASELSTAALGRLSAELHELATYPRTETGSGAP-NH2
SMILES: CC(C)C[C@H](NC(=O)[C@H](C)NC(=O)[C@H](C)NC(=O)[C@@H](NC(=O)[C@H](CO)NC(=O)[C@H](CC(C)C)NC(=O)[C@H](CCC(=O)O)NC(=O)[C@H](CO)NC(=O)[C@H](C)NC(=O)CC[C@H](NC(=O)CCCCCCCCCCCCCCCCCCC(=O)O)C(=O)O)[C@@H](C)O)C(=O)NCC(=O)N[C@@H](CCCNC(=N)N)C(=O)N[C@@H](CC(C)C)C(=O)N[C@@H](CO)C(=O)N[C@@H](C)C(=O)N[C@@H](CCC(=O)O)C(=O)N[C@@H](CC(C)C)C(=O)N[C@@H](Cc1c[nH]cn1)C(=O)N[C@@H](CCC(=O)O)C(=O)N[C@@H](CC(C)C)C(=O)N[C@@H](C)C(=O)N[C@H](C(=O)N[C@@H](Cc1ccc(O)cc1)C(=O)N1CCC[C@H]1C(=O)N[C@@H](CCCNC(=N)N)C(=O)N[C@H](C(=O)N[C@@H](CCC(=O)O)C(=O)N[C@H](C(=O)NCC(=O)N[C@@H](CO)C(=O)NCC(=O)N[C@@H](C)C(=O)N1CCC[C@H]1C(N)=O)[C@@H](C)O)[C@@H](C)O)[C@@H](C)O
notes: also called Ex. #81
B6: [N-terminal(C20 diacid-gGlu), des1, 9S, 21S, 23Y, 30S, 31G, 33Y]mimylin (peptide)
peptide: {C20 diacid-γGlu}-ASELSTASLGRLSAELHELSTYPRTETGSGSY-NH2
SMILES: CC(C)C[C@H](NC(=O)[C@H](CO)NC(=O)[C@H](C)NC(=O)[C@@H](NC(=O)[C@H](CO)NC(=O)[C@H](CC(C)C)NC(=O)[C@H](CCC(=O)O)NC(=O)[C@H](CO)NC(=O)[C@H](C)NC(=O)CC[C@H](NC(=O)CCCCCCCCCCCCCCCCCCC(=O)O)C(=O)O)[C@@H](C)O)C(=O)NCC(=O)N[C@@H](CCCNC(=N)N)C(=O)N[C@@H](CC(C)C)C(=O)N[C@@H](CO)C(=O)N[C@@H](C)C(=O)N[C@@H](CCC(=O)O)C(=O)N[C@@H](CC(C)C)C(=O)N[C@@H](Cc1c[nH]cn1)C(=O)N[C@@H](CCC(=O)O)C(=O)N[C@@H](CC(C)C)C(=O)N[C@@H](CO)C(=O)N[C@H](C(=O)N[C@@H](Cc1ccc(O)cc1)C(=O)N1CCC[C@H]1C(=O)N[C@@H](CCCNC(=N)N)C(=O)N[C@H](C(=O)N[C@@H](CCC(=O)O)C(=O)N[C@H](C(=O)NCC(=O)N[C@@H](CO)C(=O)NCC(=O)N[C@@H](CO)C(=O)N[C@@H](Cc1ccc(O)cc1)C(N)=O)[C@@H](C)O)[C@@H](C)O)[C@@H](C)O
notes: also called Ex. #100
B7: [N-terminal(C20 diacid-gGlu), des1, 12H, 25H, 30T, 31G, 32T]mimylin (peptide)
peptide: {C20 diacid-γGlu}-ASELSTAALGHLSAELHELATLPHTETGTGTP-NH2
SMILES: CC(C)C[C@H](NC(=O)[C@H](C)NC(=O)[C@H](C)NC(=O)[C@@H](NC(=O)[C@H](CO)NC(=O)[C@H](CC(C)C)NC(=O)[C@H](CCC(=O)O)NC(=O)[C@H](CO)NC(=O)[C@H](C)NC(=O)CC[C@H](NC(=O)CCCCCCCCCCCCCCCCCCC(=O)O)C(=O)O)[C@@H](C)O)C(=O)NCC(=O)N[C@@H](Cc1c[nH]cn1)C(=O)N[C@@H](CC(C)C)C(=O)N[C@@H](CO)C(=O)N[C@@H](C)C(=O)N[C@@H](CCC(=O)O)C(=O)N[C@@H](CC(C)C)C(=O)N[C@@H](Cc1c[nH]cn1)C(=O)N[C@@H](CCC(=O)O)C(=O)N[C@@H](CC(C)C)C(=O)N[C@@H](C)C(=O)N[C@H](C(=O)N[C@@H](CC(C)C)C(=O)N1CCC[C@H]1C(=O)N[C@@H](Cc1c[nH]cn1)C(=O)N[C@H](C(=O)N[C@@H](CCC(=O)O)C(=O)N[C@H](C(=O)NCC(=O)N[C@H](C(=O)NCC(=O)N[C@H](C(=O)N1CCC[C@H]1C(N)=O)[C@@H](C)O)[C@@H](C)O)[C@@H](C)O)[C@@H](C)O)[C@@H](C)O
notes: also called Ex. #93

target: T1, human calcitonin receptor; assay: whole-cell competition vs 125I-human calcitonin (Assay VIIa)
In short: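 BHK tk'ts 13 cells stably co-expressing human calcitonin receptor and a CRE-luciferase reporter, seeded overnight at 37 °C. Bound tracer counted by scintillation after cold HBSS washes and NaOH/SDS lysis; IC₅₀ from one-site competition fit taken as receptor affinity.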

Row | Binder | IC50 [nM]
1 | B1 | 0.541
2 | {C20 diacid-γGlu}-ASGLSTAALGRLSAELHELATYPRTETGSGSP-NH2 (also called Ex. #79) [[N-terminal(C20 diacid-gGlu), des1, 4G, 23Y, 30S, 31G]mimylin] | 0.385
3 | B2 | 2.94
4 | B3 | 0.628
5 | B4 | 0.307
6 | B5 | 4.93
7 | {C20 diacid-γGlu}-ASELSTAALGRLSAELHELATYPRTETGSGSY-OH (also called Ex. #88) [[N-terminal(C20 diacid-gGlu), des1, 23Y, 30S, 31G, 33Y, C-terminal(-)]mimylin] | 24.2
8 | {C20 diacid-γGlu}-ASELSTAALGHLSAELHELATLPRTETGSGSP-NH2 (also called Ex. #72) [[N-terminal(C20 diacid-gGlu), des1, 12H, 30S, 31G]mimylin] | 0.438
9 | B6 | 2.82
10 | B7 | 1.03
